The values below come from doi:10.1101/2020.07.02.184341, “Contact with the CsrA core is required for allosteric inhibition by FliW in Bacillus subtilis” (bioRxiv, 2020).

Assay [1] has as its target T1, purified untagged wild-type FliW (FliW^WT) (B. subtilis, UniProt P96503 1-143).
T1 construct: FliW, Bacillus subtilis; also called His6-SUMO-FliW^WT before cleavage; source: E. coli Rosetta gami, purified (Ni-NTA, size exclusion chromatography, SUMO tag cleaved)
T1 sequence (looked up): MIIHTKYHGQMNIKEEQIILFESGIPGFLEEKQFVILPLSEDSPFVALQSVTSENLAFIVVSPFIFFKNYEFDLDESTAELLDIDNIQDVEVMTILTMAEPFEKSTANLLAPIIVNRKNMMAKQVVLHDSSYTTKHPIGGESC
As to the kind of experiment: pull-down; 0.25 uM GST-CsrA (WT or D41K) on Glutathione-Sepharose beads; FliW at 0.125, 0.167, 0.25, 0.333 and 0.5 uM, 2 h at 4 C in T(0.1) buffer (25 mM Tris-HCl pH 8.0, 20% glycerol, 100 mM NaCl, 1 mM DTT, 1 mg/mL BSA); 4 washes; supernatant and pellet on Western blots. The conditions noted are these: both partners purified.

Assay [2] has as its target T2, purified FliW^K123E (B. subtilis, UniProt P96503 1-143, K123E).
T2 construct: FliW, Bacillus subtilis, with K123E; cloned in pTB146 (SapI/XhoI); source: E. coli Rosetta gami, purified (Ni-NTA, size exclusion chromatography, SUMO tag cleaved)
T2 sequence (looked up): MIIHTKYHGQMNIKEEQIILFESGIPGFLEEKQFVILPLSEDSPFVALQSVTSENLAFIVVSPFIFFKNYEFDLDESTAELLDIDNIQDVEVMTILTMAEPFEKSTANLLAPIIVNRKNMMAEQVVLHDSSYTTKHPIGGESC
The assay is described as above. The conditions noted are these: both partners purified.

B1: GST tagged CsrA (GST-CsrA^WT) (natural protein, B. subtilis, UniProt P33911 1-74, looked up)
chain: MLVLSRKINEAIQIGADIEVKVIAVEGDQVKLGIDAPKHIDIHRKEIYLTIQEENNRAAALSSDVISALSSQKK
notes: CsrA, Bacillus subtilis, fused to GST; The D41K form was cloned in pGEX-2TK; source: E. coli Rosetta gami, purified (Glutathione-Sepharose, size exclusion chromatography)
For the molecule B1, the binding result in assay [1] is listed as “binds”.

B2: GST-CsrA^D41K (natural protein, B. subtilis, UniProt P33911 1-74, looked up)
chain: MLVLSRKINEAIQIGADIEVKVIAVEGDQVKLGIDAPKHIKIHRKEIYLTIQEENNRAAALSSDVISALSSQKK
notes: CsrA, Bacillus subtilis, with D41K, translational fusion to the GST tag in pGEX-2TK (BamHI/EcoRI); source: E. coli Rosetta gami, purified (Glutathione-Sepharose, size exclusion chromatography)
Take B2: in assay [2], the binding result is recorded as “binds”.
